Patent US20170247716A1 (PIONEER HI BRED INTERNATIONAL, published 2017)

B1: AtARL-NubG (other, UniProt Q8RXL7 1-135, looked up)
chain: MIREFSSLQNDIINIQEHYSLNNNMDVRGDHNRKNTSFRGSAPAPIMGKQELFRTLSSQNSPRRLISASYFSLESMVVLVGLTASLLILPLILPPLPPPPFMLLLIPIGIMVLLMVLAFMPSSNSKHVSSSSTFM
notes: Prey of the split-ubiquitin yeast two-hybrid system; also called Arabidopsis ARGOS-LIKE (ARL); not shown: N-terminal half of a mutated ubiquitin (NubG)
B2: ZmRTL4-Cub-PLV (other)
chain: MENDRRQLGQIDPRRARFPCCIVWTPIPFITWLVPFIGHIGICREDGVILDFSGPHFVSVDNFAFGAVARYIQVNCDECYKLIEPEGDATWDGALKKGTQEFQNRNYNLFTCNCHSFVANNLNRLFYSGHDEWNVVSLAAVMFLRGRWVSTASVVKTLLPFAVVLSIGTFLGGTTFLTGLLAFAAAMTVWFLVGTYCIKGLIEL
notes: domain: C-terminal half of ubiquitin (Cub); Bait of the split-ubiquitin yeast two-hybrid system; the legend prints ZmRTE4-Cub-PLV; also called ZmRTE4-Cub-PLV; ZmRTL4 bait construct; not shown: C-terminal half of ubiquitin (Cub); synthetic transcription factor PLV (protease A-LexA-VP16)

What was measured:
AtRTE1-Cub-PLV = target: T1, AtRTE1-Cub-PLV (Arabidopsis, UniProt F4ITL6 1-250); assay: yeast split-ubiquitin two-hybrid
T1 construct: Bait of the mating-based split-ubiquitin yeast two-hybrid system; also called AtRTE1 bait construct; not shown: C-terminal half of ubiquitin (Cub); synthetic transcription factor PLV (protease A-LexA-VP16)
T1 sequence (looked up): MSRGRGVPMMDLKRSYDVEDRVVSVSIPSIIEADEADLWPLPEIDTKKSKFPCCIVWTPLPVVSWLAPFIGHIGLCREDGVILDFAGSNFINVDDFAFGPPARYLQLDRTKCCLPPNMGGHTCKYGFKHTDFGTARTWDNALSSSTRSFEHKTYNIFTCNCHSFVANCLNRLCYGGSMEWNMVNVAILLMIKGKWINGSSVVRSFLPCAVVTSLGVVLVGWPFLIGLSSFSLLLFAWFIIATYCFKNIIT
Procedure: (§1) (B) β-Galactosidase assay for yeast diploid cells expressing AtRTE1-Cub-PLV and various ARGOS-NubG fusion proteins. Yeast cells were cultured in SC-Leu-Trp liquid medium. The β-Galactosidase (β-Gal) activity assay uses […] as a substrate. (C) Growth of yeast diploid cells from the mating of haploid strains containing ARGOS-NubG constructs and negative control […] construct. The plates were incubated at 28° C. for 4 days. (D) Liquid β-Galactosidase assay for yeast diploid cells expressing negative control AtCHX20-Cub-PLV and various ARGOS-NubG fusion proteins.
(§2) (A) Growth of yeast diploid cells on SC dropout media to show protein-protein interaction of ZmRTL4 with Arabidopsis and maize ARGOS. The SC-Leu-Trp and SC-Leu-Trp-His-Ade media contain 134 and 375 μM Met, respectively. The plates were incubated at 28° C. for 4 days. (B) β-Galactosidase assay for yeast diploid cells expressing ZmRTE4-Cub-PLV and various ARGOS-NubG fusion proteins. (C) Growth of yeast diploid cells on SC dropout media to show protein-protein interaction of ZmRTL2 with Arabidopsis and maize ARGOS. The SC-Leu-Trp and SC-Leu-Trp-His-Ade media contain 134 μM Met. The plates were incubated at 28° C. for 5 days. (D) β-Galactosidase assay for yeast diploid cells expressing ZmRTE2-Cub-PLV and various ARGOS-NubG fusion proteins. […]

AtARL-NubG = target: B1; assay: yeast split-ubiquitin two-hybrid
Procedure: as §1, §2

| Binder | binding result (AtRTE1-Cub-PLV) | binding result (AtARL-NubG) |
| --- | --- | --- |
| B1 | binds | – |
| B2 | – | binds |
